Measurements published in patent US20160130322A1.

Columns and labels:
[1] = target: acylated ghrelin (AG) (mouse) (UniProt Q9EQX0); assay: cell-based or functional assay
[2] = target: unacylated ghrelin (UAG) (mouse) (UniProt Q9EQX0); assay: cell-based or functional assay

GHSR/Fc (Nt-EC1-EC2 of mouse GHS-R1a fused with a mouse IgG constant region (Fc)) (Fc fusion)
levels of AG in circulation of mice expressing GHSR/Fc (plasma enzyme-linked immunoassay) [1]: 1.41 pg/mL | levels of total ghrelin (primarily UAG) in circulation of mice expressing GHSR/Fc (plasma radioimmunoassay) [2]: 141 pg/mL
